For the assay, the target named is T1, full-length human vinculin (human, UniProt P18206-2 1-1066, Alexa Fluor 488 maleimide on cysteines (30% Alexa488-labeled monomers in the TIRFM assay on patterns)).
T1 construct: human vinculin, cDNA isolated from the human A431 cell line, PCR product of 1066 amino acids; FX cloning and 3C cleavage may leave a few extra residues at the ends; also called VCL; source: Sf9 insect cells (baculovirus), purified (Ni IMAC, 3C protease cleavage on the resin, Superdex 200); not shown: GFP, C-terminal, cleaved; 10xHis, C-terminal, cleaved
T1 sequence (looked up): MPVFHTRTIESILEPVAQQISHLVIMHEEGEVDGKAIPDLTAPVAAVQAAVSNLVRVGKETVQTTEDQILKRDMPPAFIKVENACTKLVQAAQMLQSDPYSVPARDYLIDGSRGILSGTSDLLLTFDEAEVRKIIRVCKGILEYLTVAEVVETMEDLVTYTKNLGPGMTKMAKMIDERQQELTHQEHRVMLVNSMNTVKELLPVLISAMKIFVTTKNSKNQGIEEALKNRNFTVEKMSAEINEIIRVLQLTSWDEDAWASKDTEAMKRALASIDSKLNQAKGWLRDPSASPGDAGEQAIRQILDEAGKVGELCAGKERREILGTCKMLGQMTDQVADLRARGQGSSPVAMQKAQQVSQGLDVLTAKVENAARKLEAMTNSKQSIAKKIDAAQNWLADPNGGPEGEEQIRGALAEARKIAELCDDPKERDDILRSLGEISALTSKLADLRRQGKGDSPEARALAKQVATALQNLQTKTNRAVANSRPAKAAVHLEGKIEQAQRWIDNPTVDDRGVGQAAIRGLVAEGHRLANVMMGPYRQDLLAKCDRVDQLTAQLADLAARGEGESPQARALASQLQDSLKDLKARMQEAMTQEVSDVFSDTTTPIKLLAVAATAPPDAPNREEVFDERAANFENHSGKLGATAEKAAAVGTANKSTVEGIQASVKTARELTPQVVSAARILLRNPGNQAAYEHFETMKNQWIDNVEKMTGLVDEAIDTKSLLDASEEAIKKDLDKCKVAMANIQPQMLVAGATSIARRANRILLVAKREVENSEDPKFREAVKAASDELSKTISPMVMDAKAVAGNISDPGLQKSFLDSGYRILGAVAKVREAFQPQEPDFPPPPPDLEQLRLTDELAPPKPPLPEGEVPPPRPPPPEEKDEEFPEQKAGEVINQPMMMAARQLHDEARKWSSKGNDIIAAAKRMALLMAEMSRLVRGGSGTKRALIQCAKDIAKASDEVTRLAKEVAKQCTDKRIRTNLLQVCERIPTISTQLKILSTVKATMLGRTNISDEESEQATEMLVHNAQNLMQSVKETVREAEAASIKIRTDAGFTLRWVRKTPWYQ
In words: TIRF microscopy on protein-coated micropatterns; micropatterns coated with 0.4 µM GST-talin VBS1 (control patterns with BSA); flow of 300 nM inactive vinculin (Alexa488), 0.3 µM actin, Arp2/3 complex and 80 nM WAVE WA; 20 mM Hepes pH 7.0, 40 mM KCl, 0.4% methylcellulose, 0.2% BSA. Conditions: both partners purified.

B1: GST-talin VBS1 (human talin 1 vinculin-binding site 1, residues 482–636) (domain or fragment, UniProt Q9Y490 482-636, looked up)
chain: RGHMPPLTSAQQALTGTINSSMQAVQAAQATLDDFDTLPPLGQDAASKAWRKNKMDESKHEIHSQVDAITAGTASVVNLTAGDPAETDYTAVGCAVTTISSNLTEMSRGVKLLAALLEDEGGSGRPLLQAAKGLAGAVSELLRSAQPASAEPRQN
notes: construct from C; Le Clainche; Coated on micropatterns as GST-talin VBS1; also called GST-VBS1; VBS1-GST; source: E. coli BL21 (DE3)pLysS, purified (glutathione-Sepharose)
With B1, the binding result is “binds”.

The record behind these values is article PMC7682986, “Talin-activated vinculin interacts with branched actin networks to initiate bundles” (eLife, 2020).
